These results are taken from paper PMC5800945 (Journal of molecular biology, 2017).

The chains are these.
B1: Fab1H (anti-Asf1 Fab, wild-type switch region) (Fab, V domains shown)
VH: EVQLVESGGGLVQPGGSLRLSCAASGFNVSYSSIHWVRQAPGKGLEWVAYIYPSSGYTSYADSVKGRFTISADTSKNTAYLQMNSLRAEDTAVYYCARSYSTKLAMDYWGQGTLVTVSS
VL: DIQMTQSPSSLSASVGDRVTITCRASQSVSSAVAWYQQKPGKAPKLLIYSASSLYSGVPSRFSGSRSGTDFTLTISSLQPEDFATYYCQQSQWYPITFGQGTKVEIK
B2: Fab1H-FNQIKG (Fab, V domains shown)
VH: EVQLVESGGGLVQPGGSLRLSCAASGFNVSYSSIHWVRQAPGKGLEWVAYIYPSSGYTSYADSVKGRFTISADTSKNTAYLQMNSLRAEDTAVYYCARSYSTKLAMDYWGQGTLVTVFN
VL: DIQMTQSPSSLSASVGDRVTITCRASQSVSSAVAWYQQKPGKAPKLLIYSASSLYSGVPSRFSGSRSGTDFTLTISSLQPEDFATYYCQQSQWYPITFGQGTKVEIK
B3: Fab1H-VSRRLP (Fab, V domains shown)
VH: EVQLVESGGGLVQPGGSLRLSCAASGFNVSYSSIHWVRQAPGKGLEWVAYIYPSSGYTSYADSVKGRFTISADTSKNTAYLQMNSLRAEDTAVYYCARSYSTKLAMDYWGQGTLVTVVS
VL: DIQMTQSPSSLSASVGDRVTITCRASQSVSSAVAWYQQKPGKAPKLLIYSASSLYSGVPSRFSGSRSGTDFTLTISSLQPEDFATYYCQQSQWYPITFGQGTKVEIK

The target in the assay is histone chaperone Anti-silencing factor 1 (Asf1) (Saccharomyces cerevisiae S288c). The assay can be described thus: crystal structure.
Sequence of histone chaperone Anti-silencing factor 1 (Asf1) (Saccharomyces cerevisiae S288c) (P32447 2-154): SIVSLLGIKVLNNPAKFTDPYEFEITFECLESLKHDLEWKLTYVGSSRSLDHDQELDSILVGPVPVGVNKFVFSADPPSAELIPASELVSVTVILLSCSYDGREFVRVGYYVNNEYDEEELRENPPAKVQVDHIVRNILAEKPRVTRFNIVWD
For the molecule B1, the binding result is recorded as “binds”.

B2: the binding result is given as “binds”. The entry for B3 is “binds”.
